Reference: patent EP2108954A1, “A test system for detecting intracellular cyclic nucleotide level and methods and uses thereof” (Max-Planck-Gesellschaft zur Förderung der Wissenschaften …, priority 2008, dated 2009)
The star is where a group is joined. Myristoyl = CCCCCCCCCCCCCC(=O)*

Target: T1, Or83b (Drosophila melanogaster, UniProt Q9VNB5)
T1 sequence (Q9VNB5 1-486): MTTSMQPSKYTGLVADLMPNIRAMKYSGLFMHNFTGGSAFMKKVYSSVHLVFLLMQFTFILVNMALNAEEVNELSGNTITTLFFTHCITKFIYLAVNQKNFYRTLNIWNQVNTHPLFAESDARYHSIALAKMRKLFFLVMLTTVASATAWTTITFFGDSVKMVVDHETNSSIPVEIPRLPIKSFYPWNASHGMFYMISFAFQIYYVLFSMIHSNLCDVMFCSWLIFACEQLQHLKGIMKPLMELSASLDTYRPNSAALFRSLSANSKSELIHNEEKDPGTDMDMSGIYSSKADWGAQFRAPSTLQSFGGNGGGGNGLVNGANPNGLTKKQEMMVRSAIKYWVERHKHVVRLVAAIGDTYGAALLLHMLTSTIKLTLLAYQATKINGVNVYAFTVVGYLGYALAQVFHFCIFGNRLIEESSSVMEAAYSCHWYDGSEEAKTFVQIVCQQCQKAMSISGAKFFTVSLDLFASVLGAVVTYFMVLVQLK
Experiment: Whole-cell patch-clamp of HEK293 cells expressing Or83b alone
Format: cell-based
Parameters: expressed in transfected cells; host or cells: HEK293
Conditions: 1 µM; n = 6
Description: HEK293 cells were cultured as described by Wicher and colleagues (Wicher et al., J. Biol. Chem. 281, 3227-36 (2006)). In brief, HEK293 cells were cultured at a density of ∼2*10^4 per 35-mm dish and transfected with 1 µg pcDNA3-DOR22a-GFP and 1 µg pcDNA3-DOR83b-GFP (Neuhaus, et al., Nat. Neurosci. 8, 15-17 (2005); DNAs were a generous gift of Dr. E. Neuhaus and Dr. H. Hatt) using Roti-Fect transfection kit (Roth, Karlsruhe, Germany). In some experiments we transfected cells with pcDNA3-DOR22a-GFP or pcDNA3-DOR83b-GFP alone. We also examined the properties of DOR47a, which was cloned, using standard molecular biology methods into a pcDNA3.1(-) expression vector. To test for putative G-protein coupling, cells were transfected with the respective OR-DNA together with 1.5 µg hHCN2/pcDNA3 (provided by M. Biel, Munich, Germany), with 1 µg hKCNQ4/pcDNA3.1 or with 1 µg hCNGA2/pCMV6-XL4 (Origene, Rockville, MD, USA).
Ion currents in HEK293 cells were measured with the patch-clamp technology as described (Wicher et al, J. Biol. Chem. 281, 3227-36 (2006)). In brief, ion currents in HEK293 cells were measured at room temperature using whole-cell patch-clamp with appropriate compensation of series resistance and of capacitive currents. Additional experiments were performed in the outside-out configuration. […]

## myristoylated PKA inhibiting peptide 14-22 amide (Myristoyl-SGRTGRRNA-NH2; SMILES CCCCCCCCCCCCCC(=O)N[C@@H](CO)C(=O)NCC(=O)N[C@@H](CCCNC(=N)N)C(=O)N[C@H](C(=O)NCC(=O)N[C@@H](CCCNC(=N)N)C(=O)N[C@@H](CCCNC(=N)N)C(=O)N[C@@H](CC(N)=O)C(=O)N[C@@H](C)C(N)=O)[C@@H](C)O; UniProt P61925 14-22, looked up, fragment) [PKI1422]
  effect of preincubation on ion currents elicited by 8-bromo-cAMP: not significantly altered
